The record followed here is patent US20210101970A1 (Pfizer, published 2021).

In assay [1] the target is T1, human CXCR5 (human, UniProt P32302 1-372).
T1 sequence: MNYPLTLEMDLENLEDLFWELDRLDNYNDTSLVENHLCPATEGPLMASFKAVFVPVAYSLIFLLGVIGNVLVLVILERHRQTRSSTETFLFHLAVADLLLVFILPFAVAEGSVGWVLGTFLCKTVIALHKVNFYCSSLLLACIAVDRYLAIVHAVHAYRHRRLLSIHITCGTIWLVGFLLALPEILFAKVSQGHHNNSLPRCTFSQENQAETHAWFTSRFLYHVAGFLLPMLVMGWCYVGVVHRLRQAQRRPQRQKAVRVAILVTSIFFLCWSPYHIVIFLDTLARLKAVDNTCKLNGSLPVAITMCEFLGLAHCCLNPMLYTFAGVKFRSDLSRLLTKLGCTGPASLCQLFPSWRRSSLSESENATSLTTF
Description: cell-based or functional assay.

Assay [2] deals with T1, human CXCR5. Nature of the assay: flow cytometry on Raji cells, fucosylated chimeric antibody. As to the method:
The fucosylated chimeric antibodies were then purified using protein A columns. The apparent affinity (cell binding EC50s) of chimeric antibody binding to Raji cells was determined by flow cytometry using a FACSVerse Analyzer (BD Bioscience, Franklin Lakes, N.J.) and are shown in Table 3.
Background: A flow cytometer gives signals particle by particle.

A further assay addresses T2, CXCR3 (human, UniProt P49682 1-368).
T2 construct: whole, on cells
T2 sequence (looked up): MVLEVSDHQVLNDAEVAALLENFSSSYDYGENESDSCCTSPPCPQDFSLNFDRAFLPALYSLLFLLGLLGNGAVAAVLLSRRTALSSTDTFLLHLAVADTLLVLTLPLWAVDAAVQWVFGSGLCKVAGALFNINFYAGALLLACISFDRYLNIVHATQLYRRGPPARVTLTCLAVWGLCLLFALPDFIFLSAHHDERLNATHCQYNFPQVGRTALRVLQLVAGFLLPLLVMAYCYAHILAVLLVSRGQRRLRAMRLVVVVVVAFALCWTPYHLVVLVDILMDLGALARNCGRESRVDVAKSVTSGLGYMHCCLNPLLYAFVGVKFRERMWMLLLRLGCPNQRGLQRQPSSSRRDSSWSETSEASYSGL
Nature of the assay: flow cytometry (GMFI) on fixed CXCR3 cells, chimeric antibody, goat anti-human PE. As to the method:
(§1) To determine the specificity of the antibodies for CXCR5, the binding of the antibodies to cells expressing other […] was assessed. Briefly, FlowCellect chemokine receptor cell lines expressing CXCR1, CXCR2, or CXCR3 (EMD Millipore, Billerica, Mass.), and Jurkats (ATCC, Manassas, Va.), which express CXCR4, were stained with 5 μg/ml or 10 μg/ml of each anti-CXCR5 chimeric antibody. The cells were then incubated with goat anti-human conjugated with PE (Southern Biotech, Birmingham, Ala.) prior to analysis by flow cytometry using a FACSVerse Analyzer (BD Biosciences, Franklin Lakes, N.J.).

The next assay has as its target T3, CXCR2 (human, UniProt P25025 1-360).
T3 construct: whole, on cells
T3 sequence (looked up): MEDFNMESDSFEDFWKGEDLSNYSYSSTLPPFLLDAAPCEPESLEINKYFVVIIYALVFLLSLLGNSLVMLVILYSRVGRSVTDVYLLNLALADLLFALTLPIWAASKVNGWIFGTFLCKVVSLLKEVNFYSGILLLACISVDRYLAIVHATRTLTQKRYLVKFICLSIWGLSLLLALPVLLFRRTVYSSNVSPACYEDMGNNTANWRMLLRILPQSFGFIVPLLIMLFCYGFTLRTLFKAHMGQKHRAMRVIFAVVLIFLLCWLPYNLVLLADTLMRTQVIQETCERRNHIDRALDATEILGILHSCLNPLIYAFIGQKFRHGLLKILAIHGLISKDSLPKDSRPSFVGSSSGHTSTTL
Nature of the assay: flow cytometry (GMFI) on fixed CXCR2 cells, chimeric antibody, goat anti-human PE. As to the method:
as §1

In a further assay the target is T4, CXCR1 (human, UniProt P25024 1-350).
T4 construct: whole, on cells
T4 sequence (looked up): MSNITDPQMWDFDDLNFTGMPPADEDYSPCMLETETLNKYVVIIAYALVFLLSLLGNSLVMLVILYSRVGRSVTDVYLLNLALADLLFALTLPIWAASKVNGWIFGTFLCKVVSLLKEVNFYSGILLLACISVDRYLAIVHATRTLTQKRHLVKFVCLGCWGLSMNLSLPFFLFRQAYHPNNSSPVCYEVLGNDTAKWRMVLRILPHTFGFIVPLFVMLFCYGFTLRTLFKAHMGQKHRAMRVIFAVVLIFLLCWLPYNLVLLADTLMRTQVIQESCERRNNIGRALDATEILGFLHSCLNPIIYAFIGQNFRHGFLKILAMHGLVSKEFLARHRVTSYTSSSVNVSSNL
Description: flow cytometry (GMFI) on fixed CXCR1 cells, chimeric antibody, goat anti-human PE. As to the method:
as §1

Assay [3] concerns the target T5, cynomolgus monkey CXCR5 (cynomolgus monkey, UniProt P32302 1-372 (human entry)).
T5 construct: also called cynoCXCR5; NHP CXCR5
T5 chain: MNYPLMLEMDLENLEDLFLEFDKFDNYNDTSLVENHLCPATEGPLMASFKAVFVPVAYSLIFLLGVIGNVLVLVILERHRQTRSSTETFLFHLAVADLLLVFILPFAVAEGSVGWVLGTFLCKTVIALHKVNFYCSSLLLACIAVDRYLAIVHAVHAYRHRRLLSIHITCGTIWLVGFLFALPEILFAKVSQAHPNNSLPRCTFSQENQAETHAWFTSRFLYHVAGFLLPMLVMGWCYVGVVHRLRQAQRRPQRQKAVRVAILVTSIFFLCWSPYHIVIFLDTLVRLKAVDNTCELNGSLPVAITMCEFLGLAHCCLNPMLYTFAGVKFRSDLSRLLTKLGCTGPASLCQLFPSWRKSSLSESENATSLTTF
Description: flow cytometry on cynoCXCR5-300.19 cells, fucosylated chimeric antibody.

Assay [4] concerns the target T1, human CXCR5. Description: cell-based or functional assay. The source holds these as a separate data set.
For assay [5], the target named is T5, cynomolgus monkey CXCR5. Description: flow cytometry on cynoCXCR5-300.19 cells.
The target in assay [6] is T1, human CXCR5. Description: flow cytometry, B cells from human PBMCs (FIG. 5); comparator 2C9.

B1: Afucosyl humanized 11G2 154/155 (antibody, human IgG1, kappa, V domains shown)
VH: EVQLVESGGGLVQPGGSLRLSCAASGFTFTDFYMSWVRQAPGKGLEWVGFIRNKANGYTTEYSASVKGRFTISRDNAKNSLYLQMNSLRAEDTAVYYCARVYGSTLHYWGQGTLVTVSS
VL: DIQMTQSPSSLSASVGDRVTITCRASESVEYHGTSLMHWYQQKPGKAPKLLIYAASNVESGVPSRFSGSGSGTDFTLTISSLQPEDFATYYCQQSRKVPWTFGQGTKVEIKR
modifications: afucosylated Fc glycan (Asn297)
notes: also called afucosyl h11G2 XC154/XC155; afucosylated h11G2 VL XC154/VH XC155
On to B1, for which the “EC50, functional antagonism (cAMP assay)” value with human CXCR5 [1] was 0.961 nM.

B2: Chimeric 11G2 (antibody, human IgG1, kappa, V domains shown)
VH: EVKLVESGGGLVQPGGSLRLSCATSGFTFTDFYMSWVRQPPGRALEWLGFIRNKANGYTTEYSASVKGRFTISRDNSQSILYLQMNTLRAGDSATYYCVRVYGSTLHYWGQGTILTVSS
VL: DVVVTQSPDSLAVSLGQRATISCRASESVEYHGTSLMHWYQQKPGQPPKLLIYAASNVESGVPARFSGSGSGTDFSLNIHPVEEGDIAMYFCQQSRKVPWTFGGGTKLEIKR
notes: mouse V regions on human IgG1/kappa; also called 11G2 (chimeric)
One may read the EC50 as the midpoint of the concentration-response curve. Turning to B2, the EC50 with human CXCR5 [2] worked out at 0.0175 nM; with cynomolgus monkey CXCR5 [3], 0.0242 nM. Also, the binding result with CXCR3, with CXCR2 and with CXCR1 was “no binding (tested: 5 or 10 µg/ml (not on the sheet))” in each case.

B3: 2C9 (reference antibody) (antibody, human IgG1, kappa, V domains shown)
VH: EVQLVESGGGLVKPGGSLRLSCAASGFTFSTNAMNWVRQAPGKGLERVARIRSKSNNYATYYADSVKDRFTISRDDSKNTLYLQMNSLKTEDTAVYYCVTMIPFAYWGQGTLVTVSS
VL: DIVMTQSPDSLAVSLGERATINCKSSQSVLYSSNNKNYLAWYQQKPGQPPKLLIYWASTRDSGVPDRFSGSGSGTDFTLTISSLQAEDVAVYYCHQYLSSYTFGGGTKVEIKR
notes: fucosylated
Regarding B3, the “Ca2+ flux IC50” value with human CXCR5 [4] came to 3.49 nM. The EC50 with cynomolgus monkey CXCR5 [5] was determined as 0.131 nM; with human CXCR5 [6], 0.0624 nM.
